This note sets out measurements from patent US20190315854A1 (BEIJING VDJBIO, published 2019).

Positions count from the first letter of the chain named.

The target in this assay is T1, sIL-6R (soluble IL-6 receptor; SBH Sciences) (human, UniProt P08887 20-365).
T1 construct: also called human IL-6R
T1 sequence: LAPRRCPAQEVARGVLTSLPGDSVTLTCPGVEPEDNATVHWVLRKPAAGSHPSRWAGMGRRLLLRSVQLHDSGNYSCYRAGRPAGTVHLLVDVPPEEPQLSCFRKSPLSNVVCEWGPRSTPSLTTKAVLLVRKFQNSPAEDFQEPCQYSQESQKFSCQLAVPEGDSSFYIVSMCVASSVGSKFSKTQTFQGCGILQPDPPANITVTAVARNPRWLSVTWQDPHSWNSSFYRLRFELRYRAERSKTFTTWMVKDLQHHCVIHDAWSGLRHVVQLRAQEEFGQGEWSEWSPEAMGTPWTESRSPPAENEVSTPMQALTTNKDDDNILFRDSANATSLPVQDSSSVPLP
As to the kind of experiment: SPR (BIAcore 3000), antibody on chip, sIL-6R analyte, 25 C. How it is done:
All SPR measurements were performed on a BIAcore 3000 instrument (GE Biosciences, Piscataway, N.J.). BIAcore Software-BIAcore 3000 Control Software V3.2 was used for the operation and control of the BIAcore 3000 instrument. BiaEvaluation Software V4.1 was used for the analysis of SPR data from the BIAcore 3000 instrument and data was plotted using Graph Pad Prism Software Version 5. […] The indicated antibodies were used as the ligand for the construction of the reference channel of the chip. […] Each sample was injected for 3 min at a flow rate of 30 μL/min to allow for binding to chip-bound antibody. Next, binding buffer without analyte was sent over the chip at the same flow rate to allow for dissociation of bound analyte. After 500s, remaining bound analyte was removed by injecting regeneration solution (1M Formic acid). Data was analyzed by using the Kinetics Wizard and the manual fitting programs that are both included with the BiaEvaluation Software V4.1.
Background: Surface plasmon resonance follows binding to a sensor surface in real time, without labels.

B1: 52# (antibody, human IgG1, kappa, V domains shown)
VH: QVQLQESGPGLVRPSQTLSLTCTVSGYSITSDHAWSWVRQPPGRGLEWIGYISYSGITTYNPSLKSRVTMLRDTSKNQFSLRLSSVTAADTAVYYCARSLARTTAIDFWGQGSLVTVSS
VL: DIQMTQSPSSLSASVGDRVTITCRASQDISSYLNWYQQKPGKAPKLLIYYTSRLHSGVPSRFSGSGSGTDFTFTISSLQPEDIATYYCQQGNTLPYTFGQGTKVEIKR
notes: also called Sample # 52
As to B1, the Kd is 1.86 nM, the “Relative Affinity” value is 1.7 fold vs 25 (Tocilizumab), the koff was 0.000199 s⁻¹ and the kon was 107000 M⁻¹ s⁻¹.

B2: 220# (antibody, human IgG1, kappa, V domains shown)
VH: B1 VH with I57M, T58I, T103M, I106M, F108Y
VL: B1 VL with Q89G, T93R
notes: also called Sample # 220
As to B2, the affinity, expressed as Kd, was 0.483 nM; the “Relative Affinity” value is 6.5 fold vs 25 (Tocilizumab); the koff was found to be 6.34e-05 s⁻¹; the on-rate constant (kon) came out at 131000 M⁻¹ s⁻¹.

B3: 215# (antibody, human IgG1, kappa, V domains shown)
VH: B1 VH with I57M, T58I, T103M, I106M, F108Y
VL: B1 VL
As to B3, the Kd is 1.03 nM, the “Relative Affinity” value is 3.1 fold vs 25 (Tocilizumab), the koff worked out at 0.000161 s⁻¹ and the kon worked out at 157000 M⁻¹ s⁻¹.

B4: 224# (antibody, human IgG1, kappa, V domains shown)
VH: B1 VH with I57M, S99C, I106M, F108Y
VL: B1 VL
As to B4, the Kd turned out to be 0.5 nM, the “Relative Affinity” value was 6.3 fold vs 25 (Tocilizumab), the off-rate (koff) was found to be 7.99e-05 s⁻¹ and the kon turned out to be 160000 M⁻¹ s⁻¹.

B5: 232# (antibody, human IgG1, kappa, V domains shown)
VH: B1 VH with I57M, T58I, S99T, T103M, I106M, F108Y
VL: B1 VL
B5: the Kd amounted to 0.319 nM, the “Relative Affinity” value is 9.9 fold vs 25 (Tocilizumab), the koff is 4.81e-05 s⁻¹ and the on-rate (kon) stood at 151000 M⁻¹ s⁻¹.

B6: 229# (antibody, human IgG1, kappa, V domains shown)
VH: B1 VH with I57M, T58I, T103M
VL: B1 VL
With B6, the dissociation constant (Kd) is 0.605 nM, the “Relative Affinity” value was 5.2 fold vs 25 (Tocilizumab), the koff came out at 7.49e-05 s⁻¹ and the kon amounted to 124000 M⁻¹ s⁻¹.

B7: 236# (antibody, human IgG1, kappa, V domains shown)
VH: B1 VH with I57M, S99C, T103A, I106M, F108Y
VL: B1 VL
With B7, the Kd was 0.0829 nM, the “Relative Affinity” value was 38.1 fold vs 25 (Tocilizumab), the koff was found to be 1.53e-05 s⁻¹ and the association rate constant (kon) was found to be 185000 M⁻¹ s⁻¹.

B8: 225# (antibody, human IgG1, kappa, V domains shown)
VH: B1 VH with I57M, T58I, S99C, I106M, F108Y
VL: B1 VL
As for B8, the Kd was 0.645 nM, the “Relative Affinity” value is 4.9 fold vs 25 (Tocilizumab), the off-rate (koff) turned out to be 0.000105 s⁻¹ and the kon turned out to be 163000 M⁻¹ s⁻¹.

B9: 233# (antibody, human IgG1, kappa, V domains shown)
VH: B1 VH with I57M, T58I, S99T
VL: B1 VL
Regarding B9, binding was characterised by a dissociation constant (Kd) of 0.387 nM, the “Relative Affinity” value was 8.2 fold vs 25 (Tocilizumab), the koff worked out at 5.75e-05 s⁻¹ and the kon stood at 149000 M⁻¹ s⁻¹.

B10: 214# (antibody, human IgG1, kappa, V domains shown)
VH: B1 VH with S99C, T103M
VL: B1 VL
Consider B10, for which the equilibrium dissociation constant (Kd) was 0.369 nM, the “Relative Affinity” value is 8.7 fold vs 25 (Tocilizumab), the koff was found to be 4.69e-05 s⁻¹ and the kon turned out to be 127000 M⁻¹ s⁻¹.

B11: 69# (antibody, human IgG1, kappa, V domains shown)
VH: B1 VH with Y51F, I57M, S99C
VL: B1 VL
notes: also called Sample # 69
As to B11, the equilibrium dissociation constant (Kd) was 0.286 nM, the “Relative Affinity” value was 11 fold vs 25 (Tocilizumab), the koff is 4.14e-05 s⁻¹ and the kon worked out at 145000 M⁻¹ s⁻¹.

B12: 234# (antibody, human IgG1, kappa, V domains shown)
VH: B1 VH with I57M, S99C, T103M, I106M, F108Y
VL: B1 VL
In the case of B12, binding was characterised by a dissociation constant (Kd) of 0.37 nM, the “Relative Affinity” value was 8.5 fold vs 25 (Tocilizumab), the koff turned out to be 5.69e-05 s⁻¹ and the kon amounted to 154000 M⁻¹ s⁻¹.

B13: 221# (antibody, human IgG1, kappa, V domains shown)
VH: B1 VH with I57M, T58I
VL: B1 VL with Q89G, T93R
On to B13, for which the equilibrium dissociation constant (Kd) came to 0.663 nM, the “Relative Affinity” value is 4.8 fold vs 25 (Tocilizumab), the koff came to 9.01e-05 s⁻¹ and the kon is 136000 M⁻¹ s⁻¹.

B14: 230# (antibody, human IgG1, kappa, V domains shown)
VH: B1 VH with I57M, T58I, S99C
VL: B1 VL
notes: also called Sample # 230
As for B14, the Kd is 0.448 nM, the “Relative Affinity” value was 7.1 fold vs 25 (Tocilizumab), the koff stood at 6.15e-05 s⁻¹ and the kon came to 137000 M⁻¹ s⁻¹.

B15: 218# (antibody, human IgG1, kappa, V domains shown)
VH: B1 VH with I57M, T58I, S99C, T103M
VL: B1 VL
In the case of B15, the Kd turned out to be 0.621 nM, the “Relative Affinity” value was 5.1 fold vs 25 (Tocilizumab), the koff turned out to be 6.63e-05 s⁻¹ and the kon worked out at 107000 M⁻¹ s⁻¹.

B16: 59# (antibody, human IgG1, kappa, V domains shown)
VH: B1 VH with Y51F, I57M, S99C, I106M, F108Y
VL: B1 VL
notes: also called Sample # 59
On to B16, for which the Kd worked out at 0.283 nM, the “Relative Affinity” value was 11.2 fold vs 25 (Tocilizumab), the off-rate (koff) worked out at 4.86e-05 s⁻¹ and the kon stood at 172000 M⁻¹ s⁻¹.

B17: 55# (antibody, human IgG1, kappa, V domains shown)
VH: B1 VH with Y51F, I57M, T58I, S99C, I106M, F108Y
VL: B1 VL
notes: also called Sample # 55
Regarding B17, binding was characterised by a dissociation constant (Kd) of 0.387 nM, the “Relative Affinity” value is 8.2 fold vs 25 (Tocilizumab), the dissociation rate constant (koff) was 7.24e-05 s⁻¹ and the kon was found to be 187000 M⁻¹ s⁻¹.

B18: 228# (antibody, human IgG1, kappa, V domains shown)
VH: B1 VH with I57M, S99C, T103M
VL: B1 VL
notes: also called Sample # 228
Regarding B18, the Kd amounted to 0.204 nM, the “Relative Affinity” value is 15.5 fold vs 25 (Tocilizumab), the koff stood at 3.04e-05 s⁻¹ and the on-rate constant (kon) amounted to 149000 M⁻¹ s⁻¹.

B19: 217# (antibody, human IgG1, kappa, V domains shown)
VH: B1 VH with I57M, T58I, S99C, T103M, I106M, F108Y
VL: B1 VL
notes: also called Sample # 217
For the molecule B19, binding was characterised by a dissociation constant (Kd) of 0.581 nM, the “Relative Affinity” value was 5.4 fold vs 25 (Tocilizumab), the koff was 0.000109 s⁻¹ and the kon was determined as 188000 M⁻¹ s⁻¹.

B20: 227# (antibody, human IgG1, kappa, V domains shown)
VH: B1 VH with I57M, T58I, T103A, I106M, F108Y
VL: B1 VL
notes: also called Sample # 227
In the case of B20, the Kd amounted to 0.477 nM, the “Relative Affinity” value was 6.6 fold vs 25 (Tocilizumab), the koff is 6.9e-05 s⁻¹ and the kon was 144000 M⁻¹ s⁻¹.

B21: 235# (antibody, human IgG1, kappa, V domains shown)
VH: B1 VH with I57M, T58I, S99T, T103M
VL: B1 VL
In the case of B21, the dissociation constant (Kd) was found to be 0.297 nM, the “Relative Affinity” value is 10.6 fold vs 25 (Tocilizumab), the koff was 3.81e-05 s⁻¹ and the kon turned out to be 128000 M⁻¹ s⁻¹.

B22: 226# (antibody, human IgG1, kappa, V domains shown)
VH: B1 VH with I57M, T58I, S99C, T103A, I106M, F108Y
VL: B1 VL
Regarding B22, binding was characterised by a dissociation constant (Kd) of 0.102 nM, the “Relative Affinity” value is 31 fold vs 25 (Tocilizumab), the koff is 1.6e-05 s⁻¹ and the kon is 156000 M⁻¹ s⁻¹.

B23: 222# (antibody, human IgG1, kappa, V domains shown)
VH: B1 VH with I57M, T58I, S99C, T103M, I106M, F108Y
VL: B1 VL with Q89G, T93R
notes: also called Sample # 222
Take B23: binding was characterised by a dissociation constant (Kd) of 0.286 nM, the “Relative Affinity” value was 11 fold vs 25 (Tocilizumab), the off-rate (koff) was determined as 3.66e-05 s⁻¹ and the kon stood at 128000 M⁻¹ s⁻¹.

B24: 219# (antibody, human IgG1, kappa, V domains shown)
VH: B1 VH with S99C, T103M
VL: B1 VL with Q89G, T93R
Turning to B24, the dissociation constant Kd amounted to 0.491 nM, the “Relative Affinity” value is 6.4 fold vs 25 (Tocilizumab), the dissociation rate constant (koff) worked out at 5.96e-05 s⁻¹ and the kon is 121000 M⁻¹ s⁻¹.

B25: 216# (antibody, human IgG1, kappa, V domains shown)
VH: B1 VH with I57M, T58I
VL: B1 VL
notes: also called Sample # 216
Take B25: the Kd is 1.83 nM, the “Relative Affinity” value was 1.7 fold vs 25 (Tocilizumab), the dissociation rate constant (koff) was determined as 0.000266 s⁻¹ and the on-rate (kon) is 145000 M⁻¹ s⁻¹.

B26: 223# (antibody, human IgG1, kappa, V domains shown)
VH: B1 VH with I57M, T58I, S99C, T103M
VL: B1 VL with Q89G, T93R
notes: also called Sample # 223
As for B26, binding was characterised by a dissociation constant (Kd) of 0.368 nM, the “Relative Affinity” value was 8.6 fold vs 25 (Tocilizumab), the dissociation rate constant (koff) came out at 4.91e-05 s⁻¹ and the kon was 133000 M⁻¹ s⁻¹.

One may read the Kd as the concentration at which binding is half-saturated. One may read the koff as a measure of how fast the partners let go of each other. High values mean fast dissociation, low ones slow dissociation. For orientation: kon means a measure of how fast the partners come together.
